# Assay results as given in article PMC6555819, “Comprehensive study of nuclear receptor DNA binding provides a revised framework for understanding receptor specificity”.
# Substitutions are numbered along the chain they refer to.
# B1: NRC3_random_hg19_349_o1 (dsDNA)
# DNA 1: GCAGTGTATGCTAAACACCTTCACTTACCTTCCTCAGCGATTGACAGCGTAGAATGAAGG
# DNA 2: CCTTCATTCTACGCTGTCAATCGCTGAGGAAGGTAAGTGAAGGTGTTTAGCATACACTGC
# B2: NRC3_random_hg19_489_o1 (dsDNA)
# DNA 1: GCAACAAAGCCTGTATGACAGCACATCTGTGTACAGGCGATTGACAGCGTAGAATGAAGG
# DNA 2: CCTTCATTCTACGCTGTCAATCGCCTGTACACAGATGTGCTGTCATACAGGCTTTGTTGC
# B3: NRC3_random_hg19_362_o1 (dsDNA)
# DNA 1: GCGCCTTCTGCACCTCCTCAGTCCCTCTCCCTTTCCGCGATTGACAGCGTAGAATGAAGG
# DNA 2: CCTTCATTCTACGCTGTCAATCGCGGAAAGGGAGAGGGACTGAGGAGGTGCAGAAGGCGC
# B4: NRC3_wobSeed27_DR1_G17C_o1 (dsDNA)
# DNA 1: GCACTCGGAGGACAAACGTCAGAGCTACGCCAGTGAGCGATTGACAGCGTAGAATGAAGG
# DNA 2: CCTTCATTCTACGCTGTCAATCGCTCACTGGCGTAGCTCTGACGTTTGTCCTCCGAGTGC
# B5: NRC3_wobSeed122_DR5_T9A_o1 (dsDNA)
# DNA 1: GCGCTAGTAGGTCAGTAAAAGGTCACACACCGGTCGGCGATTGACAGCGTAGAATGAAGG
# DNA 2: CCTTCATTCTACGCTGTCAATCGCCGACCGGTGTGTGACCTTTTACTGACCTACTAGCGC
# B6: NRC3_wobSeed136_DR5_C23T_o1 (dsDNA)
# DNA 1: GCTAGCCTAGGTCATTCAGGGGTCAGTATAGAAAGCGCGATTGACAGCGTAGAATGAAGG
# DNA 2: CCTTCATTCTACGCTGTCAATCGCGCTTTCTATACTGACCCCTGAATGACCTAGGCTAGC
# B7: NRC3_random_hg19_279_o1 (dsDNA)
# DNA 1: GCTGCAGTGGTAACAGTCTGACTTCTAAACTGCTATGCGATTGACAGCGTAGAATGAAGG
# DNA 2: CCTTCATTCTACGCTGTCAATCGCATAGCAGTTTAGAAGTCAGACTGTTACCACTGCAGC
# B8: NRC3_random_hg19_133_o1 (dsDNA)
# DNA 1: GCTCAAGGAGAAAGACACTCCTTTGAAGCGTTGGAAGCGATTGACAGCGTAGAATGAAGG
# DNA 2: CCTTCATTCTACGCTGTCAATCGCTTCCAACGCTTCAAAGGAGTGTCTTTCTCCTTGAGC
# B9: NRC3_wobSeed82_DR3_T27A_o1 (dsDNA)
# DNA 1: GCATCGAAAGGTCGACGAGGTGAGTAAACACCGTTTGCGATTGACAGCGTAGAATGAAGG
# DNA 2: CCTTCATTCTACGCTGTCAATCGCAAACGGTGTTTACTCACCTCGTCGACCTTTCGATGC
# B10: NRC3_random_hg19_267_o1 (dsDNA)
# DNA 1: GCGCCTCAGTCATGAGTCACATGAAAGTGACTCACCGCGATTGACAGCGTAGAATGAAGG
# DNA 2: CCTTCATTCTACGCTGTCAATCGCGGTGAGTCACTTTCATGTGACTCATGACTGAGGCGC
# B11: NRC3_random_hg19_304_o1 (dsDNA)
# DNA 1: GCGGCTGTTAGCGCTCATCTCTGTGTGCCTTCACAGGCGATTGACAGCGTAGAATGAAGG
# DNA 2: CCTTCATTCTACGCTGTCAATCGCCTGTGAAGGCACACAGAGATGAGCGCTAACAGCCGC
# B12: NRC3_random_hg19_146_o1 (dsDNA)
# DNA 1: GCGCCTCTAGGTCTTTGAGGAATTGCCACACTGTCTGCGATTGACAGCGTAGAATGAAGG
# DNA 2: CCTTCATTCTACGCTGTCAATCGCAGACAGTGTGGCAATTCCTCAAAGACCTAGAGGCGC
# B13: NRC3_random_hg19_398_o1 (dsDNA)
# DNA 1: GCAAGAAACAACAAACTTAGTACCTAGAAACAAGAGGCGATTGACAGCGTAGAATGAAGG
# DNA 2: CCTTCATTCTACGCTGTCAATCGCCTCTTGTTTCTAGGTACTAAGTTTGTTGTTTCTTGC
# B14: NRC3_wobSeed140_DR5_A9G_o1 (dsDNA)
# DNA 1: GCAGAATGGGGTTATACGTAGATCAGGGAAGAAAGTGCGATTGACAGCGTAGAATGAAGG
# DNA 2: CCTTCATTCTACGCTGTCAATCGCACTTTCTTCCCTGATCTACGTATAACCCCATTCTGC
# B15: NRC3_random_hg19_214_o1 (dsDNA)
# DNA 1: GCATCCGTTCCTTGGAGGGAGTCTGCAGACTGGCTGGCGATTGACAGCGTAGAATGAAGG
# DNA 2: CCTTCATTCTACGCTGTCAATCGCCAGCCAGTCTGCAGACTCCCTCCAAGGAACGGATGC
# B16: NRC3_wobSeed51_DR2_G23A_o1 (dsDNA)
# DNA 1: GCCCTCGGAGGACAGAAGGTCAAAGCTGTCCGCTTTGCGATTGACAGCGTAGAATGAAGG
# DNA 2: CCTTCATTCTACGCTGTCAATCGCAAAGCGGACAGCTTTGACCTTCTGTCCTCCGAGGGC
# B17: NRC3_random_hg19_271_o1 (dsDNA)
# DNA 1: GCCTCCCTCCCATCGCCTGAACCTGCTGGAATGAGCGCGATTGACAGCGTAGAATGAAGG
# DNA 2: CCTTCATTCTACGCTGTCAATCGCGCTCATTCCAGCAGGTTCAGGCGATGGGAGGGAGGC
# B18: NRC3_random_hg19_382_o1 (dsDNA)
# DNA 1: GCAATGAAGTGGATGCATGGTTGGTGGCTCAGCAGCGCGATTGACAGCGTAGAATGAAGG
# DNA 2: CCTTCATTCTACGCTGTCAATCGCGCTGCTGAGCCACCAACCATGCATCCACTTCATTGC
# B19: NRC3_random_hg19_496_o1 (dsDNA)
# DNA 1: GCAGCATCTGACAAGGCTGACTACTCCCATCTGGATGCGATTGACAGCGTAGAATGAAGG
# DNA 2: CCTTCATTCTACGCTGTCAATCGCATCCAGATGGGAGTAGTCAGCCTTGTCAGATGCTGC
# B20: NRC3_random_hg19_60_o1 (dsDNA)
# DNA 1: GCGTGCTCACATGTCACATTCTGGTGATTCTTGCAAGCGATTGACAGCGTAGAATGAAGG
# DNA 2: CCTTCATTCTACGCTGTCAATCGCTTGCAAGAATCACCAGAATGTGACATGTGAGCACGC
# B21: NRC3_random_hg19_308_o1 (dsDNA)
# DNA 1: GCATGAACCACTTGAAGGGTGTGGCCTCCATCTTGCGCGATTGACAGCGTAGAATGAAGG
# DNA 2: CCTTCATTCTACGCTGTCAATCGCGCAAGATGGAGGCCACACCCTTCAAGTGGTTCATGC
# B22: NRC3_wobSeed134_DR5_G26A_o1 (dsDNA)
# DNA 1: GCGCTGCTAGGTCAACTGATGGTCAACTAAAGCTCGGCGATTGACAGCGTAGAATGAAGG
# DNA 2: CCTTCATTCTACGCTGTCAATCGCCGAGCTTTAGTTGACCATCAGTTGACCTAGCAGCGC
# B23: NRC3_wobSeed134_DR5_A9C_o1 (dsDNA)
# DNA 1: B22 DNA 1 with A9C, A26G
# DNA 2: B22 DNA 2 with T35C, T52G
# B24: NRC3_random_hg19_254_o1 (dsDNA)
# DNA 1: GCGCCTCTGGAATGTAAACTCCAGCCTGGCATGTATGCGATTGACAGCGTAGAATGAAGG
# DNA 2: CCTTCATTCTACGCTGTCAATCGCATACATGCCAGGCTGGAGTTTACATTCCAGAGGCGC
# B25: NRC3_random_hg19_403_o1 (dsDNA)
# DNA 1: GCATCTCCTGCCTCAGCCTCCTGAATAGGTGGGACTGCGATTGACAGCGTAGAATGAAGG
# DNA 2: CCTTCATTCTACGCTGTCAATCGCAGTCCCACCTATTCAGGAGGCTGAGGCAGGAGATGC
# B26: NRC3_random_hg19_243_o1 (dsDNA)
# DNA 1: GCCAAATGCTAGCAGAAGGCAAGAAACAACTAAGATGCGATTGACAGCGTAGAATGAAGG
# DNA 2: CCTTCATTCTACGCTGTCAATCGCATCTTAGTTGTTTCTTGCCTTCTGCTAGCATTTGGC
# B27: NRC3_random_hg19_116_o1 (dsDNA)
# DNA 1: GCTGGGCACATGAGGGATGGGAGTTGATCTCTGTGGGCGATTGACAGCGTAGAATGAAGG
# DNA 2: CCTTCATTCTACGCTGTCAATCGCCCACAGAGATCAACTCCCATCCCTCATGTGCCCAGC
# Target: RARg:RXRa (Homo sapiens, UniProt P13631;P19793 full;full)
# Assay: no ligand; PBM; 270 nM : 90 nM RXRa; PBS pH 7.4, 2% milk, 0.02% Triton X-100, 1 mM DTT, BSA, 0.4 mg/ml salmon testes DNA
# Conditions: tags: His kept;His cleaved; copies: 1;1; label: surface-attached array probe
# How it was run: (§1)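 Custom Agilent 4×180K protein-binding microarrays carried double-stranded probes. Their 34-nt variable regions held direct-repeat seeds, single-nucleotide variants, half-site ablations and random human genomic background sequences. Arrays were incubated 1 h with ligand-free nuclear receptor dimers in PBS pH 7.4, 2% milk, 0.02% Triton X-100, 1 mM DTT, 0.2 mg/mL BSA and 0.4 mg/ml salmon testes DNA. Antibodies against each partner (one per run) detected binding, and scanned fluorescence was regression-normalized. Binding z-scores use random background probes as reference.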
# RARg:RXRa, sequence (P13631 whole entry, chain 1 of 2): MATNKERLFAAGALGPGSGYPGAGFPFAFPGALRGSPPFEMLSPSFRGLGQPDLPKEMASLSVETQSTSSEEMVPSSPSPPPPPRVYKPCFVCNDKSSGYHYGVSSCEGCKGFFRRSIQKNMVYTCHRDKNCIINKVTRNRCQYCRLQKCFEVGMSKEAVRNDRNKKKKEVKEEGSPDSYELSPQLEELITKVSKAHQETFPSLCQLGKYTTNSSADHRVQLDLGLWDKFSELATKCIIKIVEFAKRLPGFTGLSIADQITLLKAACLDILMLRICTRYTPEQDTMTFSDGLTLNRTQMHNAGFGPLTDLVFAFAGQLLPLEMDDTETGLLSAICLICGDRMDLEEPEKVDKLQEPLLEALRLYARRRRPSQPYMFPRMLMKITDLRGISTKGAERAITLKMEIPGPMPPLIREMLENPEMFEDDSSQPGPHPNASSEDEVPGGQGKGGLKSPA
# RARg:RXRa, sequence (P19793 whole entry, chain 2 of 2): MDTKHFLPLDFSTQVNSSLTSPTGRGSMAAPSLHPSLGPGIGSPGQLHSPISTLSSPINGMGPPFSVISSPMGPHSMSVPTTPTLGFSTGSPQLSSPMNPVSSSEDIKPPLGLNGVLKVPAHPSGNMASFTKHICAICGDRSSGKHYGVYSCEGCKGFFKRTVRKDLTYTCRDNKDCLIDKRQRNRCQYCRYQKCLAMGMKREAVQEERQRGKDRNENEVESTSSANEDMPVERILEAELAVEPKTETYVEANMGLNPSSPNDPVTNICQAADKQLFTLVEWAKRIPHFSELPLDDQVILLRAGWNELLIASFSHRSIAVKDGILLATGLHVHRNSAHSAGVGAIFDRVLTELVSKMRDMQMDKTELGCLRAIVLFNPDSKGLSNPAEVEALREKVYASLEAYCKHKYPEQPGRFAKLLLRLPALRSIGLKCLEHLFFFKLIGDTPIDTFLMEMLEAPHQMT
row,Binder,binding signal
1,B1,0.03 PBM z-score against 500 random probes
2,B2,-0.12 PBM z-score against 500 random probes
3,B3,-0.73 PBM z-score against 500 random probes
4,B4,0.21 PBM z-score against 500 random probes
5,B5,7.87 PBM z-score against 500 random probes
6,B6,8.33 PBM z-score against 500 random probes

# Target: RARa:RXRa (Homo sapiens, UniProt P10276;P19793 full;full)
# Assay: as above
# Conditions: tags: His kept;His cleaved; copies: 1;1; label: surface-attached array probe
# How it was run: as §1
# RARa:RXRa, sequence (P10276 whole entry, chain 1 of 2): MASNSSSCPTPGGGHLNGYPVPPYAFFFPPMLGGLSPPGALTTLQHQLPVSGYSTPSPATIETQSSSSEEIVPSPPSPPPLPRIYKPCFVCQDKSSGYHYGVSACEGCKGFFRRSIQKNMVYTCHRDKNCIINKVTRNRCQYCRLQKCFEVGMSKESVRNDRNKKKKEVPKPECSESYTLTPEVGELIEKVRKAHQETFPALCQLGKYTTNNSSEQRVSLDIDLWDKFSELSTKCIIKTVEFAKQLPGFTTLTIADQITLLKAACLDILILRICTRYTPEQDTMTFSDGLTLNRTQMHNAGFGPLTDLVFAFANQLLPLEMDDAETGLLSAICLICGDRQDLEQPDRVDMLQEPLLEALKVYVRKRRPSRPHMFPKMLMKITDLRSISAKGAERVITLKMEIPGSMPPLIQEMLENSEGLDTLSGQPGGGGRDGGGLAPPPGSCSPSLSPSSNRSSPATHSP
# RARa:RXRa, sequence (P19793 whole entry, chain 2 of 2): as the sequence (P19793 whole entry, chain 2 of 2) above
row,Binder,binding signal
1,B7,-0.56 PBM z-score against 500 random probes
2,B8,-0.29 PBM z-score against 500 random probes
3,B9,3.55 PBM z-score against 500 random probes
4,B10,-0.31 PBM z-score against 500 random probes
5,B11,-1 PBM z-score against 500 random probes
6,B12,-0.8 PBM z-score against 500 random probes
7,B13,0.12 PBM z-score against 500 random probes
8,B14,3.3 PBM z-score against 500 random probes
9,B15,-2.33 PBM z-score against 500 random probes
10,B1,-0.1 PBM z-score against 500 random probes
11,B2,-0.79 PBM z-score against 500 random probes
12,B3,0.1 PBM z-score against 500 random probes
13,B16,3.96 PBM z-score against 500 random probes
14,B17,0.16 PBM z-score against 500 random probes
15,B18,-0.69 PBM z-score against 500 random probes
16,B4,-0.3 PBM z-score against 500 random probes
17,B19,-0.43 PBM z-score against 500 random probes
18,B5,7.6 PBM z-score against 500 random probes
19,B20,0.05 PBM z-score against 500 random probes
20,B21,0.27 PBM z-score against 500 random probes
21,B6,7.49 PBM z-score against 500 random probes
22,B22,3.74 PBM z-score against 500 random probes
23,B23,0.23 PBM z-score against 500 random probes
24,B24,-0.5 PBM z-score against 500 random probes
25,B25,-0.6 PBM z-score against 500 random probes
26,B26,-0.38 PBM z-score against 500 random probes
27,B27,-0.48 PBM z-score against 500 random probes

# Target: FXR:RXRa (Homo sapiens, UniProt Q96RI1;P19793 full;full)
# Assay: as above
# Conditions: tags: His kept;His cleaved; copies: 1;1; label: surface-attached array probe
# How it was run: as §1
# FXR:RXRa, sequence (Q96RI1 whole entry, chain 1 of 2): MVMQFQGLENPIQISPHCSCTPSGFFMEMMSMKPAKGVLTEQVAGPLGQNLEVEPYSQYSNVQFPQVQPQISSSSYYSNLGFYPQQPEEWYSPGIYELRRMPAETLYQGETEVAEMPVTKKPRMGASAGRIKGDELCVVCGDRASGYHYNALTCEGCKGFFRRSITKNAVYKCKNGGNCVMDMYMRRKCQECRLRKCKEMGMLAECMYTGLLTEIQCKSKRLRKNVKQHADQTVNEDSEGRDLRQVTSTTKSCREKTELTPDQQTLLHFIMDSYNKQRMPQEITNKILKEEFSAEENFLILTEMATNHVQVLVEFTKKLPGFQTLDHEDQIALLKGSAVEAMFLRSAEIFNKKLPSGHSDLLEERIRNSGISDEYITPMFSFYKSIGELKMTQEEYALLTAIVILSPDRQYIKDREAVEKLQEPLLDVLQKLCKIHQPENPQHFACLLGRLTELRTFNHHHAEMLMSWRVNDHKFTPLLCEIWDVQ
# FXR:RXRa, sequence (P19793 whole entry, chain 2 of 2): as the sequence (P19793 whole entry, chain 2 of 2) above
row,Binder,binding signal
1,B9,4.45 PBM z-score against 500 random probes
2,B14,4.21 PBM z-score against 500 random probes
3,B15,-0.76 PBM z-score against 500 random probes
4,B16,3.12 PBM z-score against 500 random probes
5,B20,-0.25 PBM z-score against 500 random probes
6,B21,-0.1 PBM z-score against 500 random probes
7,B22,4.04 PBM z-score against 500 random probes
8,B26,-0.92 PBM z-score against 500 random probes

# Target: PPARa:RXRa (Homo sapiens, UniProt Q07869;P19793 full;full)
# Assay: as above
# Conditions: tags: GST kept;His cleaved; copies: 1;1; label: surface-attached array probe
# How it was run: as §1
# PPARa:RXRa, sequence (Q07869 whole entry, chain 1 of 2): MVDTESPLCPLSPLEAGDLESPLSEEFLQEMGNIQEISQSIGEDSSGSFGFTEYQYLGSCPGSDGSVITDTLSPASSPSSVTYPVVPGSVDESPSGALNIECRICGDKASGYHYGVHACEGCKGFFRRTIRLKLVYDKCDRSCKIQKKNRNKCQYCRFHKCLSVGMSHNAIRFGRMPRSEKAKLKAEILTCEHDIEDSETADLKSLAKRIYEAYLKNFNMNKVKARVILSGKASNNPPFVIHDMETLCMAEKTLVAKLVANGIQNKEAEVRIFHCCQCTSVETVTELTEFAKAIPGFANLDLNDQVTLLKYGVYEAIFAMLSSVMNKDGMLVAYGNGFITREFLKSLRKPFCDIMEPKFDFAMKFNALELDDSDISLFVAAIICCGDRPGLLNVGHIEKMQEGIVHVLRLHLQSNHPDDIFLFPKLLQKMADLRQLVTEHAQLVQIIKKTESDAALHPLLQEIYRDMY
# PPARa:RXRa, sequence (P19793 whole entry, chain 2 of 2): as the sequence (P19793 whole entry, chain 2 of 2) above
row,Binder,binding signal
1,B17,0.08 PBM z-score against 500 random probes
2,B23,0.3 PBM z-score against 500 random probes

# Target: RARb:RXRa (Homo sapiens, UniProt P10826;P19793 full;full)
# Assay: as above
# Conditions: tags: His kept;His cleaved; copies: 1;1; label: surface-attached array probe
# How it was run: as §1
# RARb:RXRa, sequence (P10826 whole entry, chain 1 of 2): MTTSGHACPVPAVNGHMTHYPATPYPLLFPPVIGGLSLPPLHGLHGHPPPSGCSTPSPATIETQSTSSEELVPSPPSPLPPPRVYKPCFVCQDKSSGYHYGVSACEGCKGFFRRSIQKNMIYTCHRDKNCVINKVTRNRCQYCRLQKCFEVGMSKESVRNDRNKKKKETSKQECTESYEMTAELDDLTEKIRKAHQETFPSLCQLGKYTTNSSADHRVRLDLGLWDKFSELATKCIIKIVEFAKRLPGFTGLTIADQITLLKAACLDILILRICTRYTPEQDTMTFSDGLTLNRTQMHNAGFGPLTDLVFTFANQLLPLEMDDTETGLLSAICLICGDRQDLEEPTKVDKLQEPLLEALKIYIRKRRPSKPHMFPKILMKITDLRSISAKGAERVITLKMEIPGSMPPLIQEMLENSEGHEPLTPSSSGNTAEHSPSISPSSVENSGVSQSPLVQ
# RARb:RXRa, sequence (P19793 whole entry, chain 2 of 2): as the sequence (P19793 whole entry, chain 2 of 2) above
row,Binder,binding signal
1,B11,-1.19 PBM z-score against 500 random probes
2,B13,-0.22 PBM z-score against 500 random probes
3,B24,-0.34 PBM z-score against 500 random probes
4,B25,-1.01 PBM z-score against 500 random probes
